{"source": "paper PMC3923860", "system": "H1-CΔ97 (histone H1o lacking C-terminal domain) (mouse)", "assay": "EMSA", "conditions": "no competitor DNA; EMSA: 50 mM NaCl, 25 mM Tris-HCl pH 7.5, 1 mM EDTA, 1 mM DTT, 100 ug/ml acetylated BSA, 3% glycerol; 30 min on ice; gels 0.5x TBE, 4 C", "data": [{"substance": "hemicatenated DNA loops (hcDNA)", "values": [{"measurement": "Kd", "result": 35, "unit": "nM"}]}]}
